# Measured values: US20100081612A1 (GENERAL HOSPITAL, published 2010)
# Where no end group is shown, it is not given here. [ ]: non-standard residue; d: D form. Apa = (S)-2-amino-4[(2-amino)pyrimidinyl]methylalanine; Cha = N[C@@H](CC1CCCCC1)C(=O)O; Orn = NCCC[C@H](N)C(=O)O
# T1: rat PTHR endogenously expressed in ROS 17/2.8 cells (rat, UniProt P25961 27-591)
# T1 sequence (looked up): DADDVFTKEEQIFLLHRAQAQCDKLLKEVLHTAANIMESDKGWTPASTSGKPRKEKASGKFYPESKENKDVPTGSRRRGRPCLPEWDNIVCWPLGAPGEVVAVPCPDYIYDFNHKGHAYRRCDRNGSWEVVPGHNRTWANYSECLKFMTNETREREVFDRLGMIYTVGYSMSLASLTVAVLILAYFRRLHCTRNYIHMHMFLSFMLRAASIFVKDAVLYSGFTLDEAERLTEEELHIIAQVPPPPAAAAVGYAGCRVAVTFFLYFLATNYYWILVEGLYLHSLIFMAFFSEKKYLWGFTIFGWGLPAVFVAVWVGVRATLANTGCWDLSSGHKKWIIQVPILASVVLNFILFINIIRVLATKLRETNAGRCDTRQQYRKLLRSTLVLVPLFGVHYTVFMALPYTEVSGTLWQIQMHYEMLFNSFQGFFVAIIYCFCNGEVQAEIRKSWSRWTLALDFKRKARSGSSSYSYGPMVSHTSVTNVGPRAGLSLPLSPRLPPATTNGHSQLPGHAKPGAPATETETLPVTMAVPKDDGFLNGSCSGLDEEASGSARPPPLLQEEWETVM
# T2: wild-type human PTHR (human, UniProt Q03431 27-593)
# T2 construct: whole, on cells; also called PTHR-WT; intact PTHR
# T2 sequence (looked up): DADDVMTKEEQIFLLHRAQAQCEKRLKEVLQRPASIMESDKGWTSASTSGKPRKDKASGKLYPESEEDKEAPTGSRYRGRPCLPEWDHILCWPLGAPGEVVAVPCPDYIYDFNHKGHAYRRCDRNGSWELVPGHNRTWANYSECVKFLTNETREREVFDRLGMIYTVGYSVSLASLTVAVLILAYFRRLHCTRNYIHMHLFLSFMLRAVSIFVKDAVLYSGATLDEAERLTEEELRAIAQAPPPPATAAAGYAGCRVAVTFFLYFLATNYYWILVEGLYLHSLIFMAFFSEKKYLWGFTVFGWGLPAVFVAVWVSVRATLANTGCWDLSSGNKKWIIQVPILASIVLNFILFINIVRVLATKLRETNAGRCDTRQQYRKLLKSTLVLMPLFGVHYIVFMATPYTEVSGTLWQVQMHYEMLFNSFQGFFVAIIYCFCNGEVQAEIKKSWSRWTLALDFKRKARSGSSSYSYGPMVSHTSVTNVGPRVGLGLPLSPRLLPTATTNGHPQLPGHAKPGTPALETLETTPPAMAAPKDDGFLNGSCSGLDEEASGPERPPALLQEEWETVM
# B1: [Ala^1,Arg^19]hPTH(1-31)NH2 Arg^20→Cha (peptide)
# peptide: AVSEIQLMHNLGKHLNSMR[Cha]VEWLRKKLQDV-NH2
# modifications: N-terminus assumed
# SMILES: CC[C@H](C)[C@H](NC(=O)[C@H](CCC(=O)O)NC(=O)[C@H](CO)NC(=O)[C@@H](NC(=O)[C@H](C)N)C(C)C)C(=O)N[C@@H](CCC(N)=O)C(=O)N[C@@H](CC(C)C)C(=O)N[C@@H](CCSC)C(=O)N[C@@H](Cc1c[nH]cn1)C(=O)N[C@@H](CC(N)=O)C(=O)N[C@@H](CC(C)C)C(=O)NCC(=O)N[C@@H](CCCCN)C(=O)N[C@@H](Cc1c[nH]cn1)C(=O)N[C@@H](CC(C)C)C(=O)N[C@@H](CC(N)=O)C(=O)N[C@@H](CO)C(=O)N[C@@H](CCSC)C(=O)N[C@@H](CCCNC(=N)N)C(=O)N[C@@H](CC1CCCCC1)C(=O)N[C@H](C(=O)N[C@@H](CCC(=O)O)C(=O)N[C@@H](Cc1c[nH]c2ccccc12)C(=O)N[C@@H](CC(C)C)C(=O)N[C@@H](CCCNC(=N)N)C(=O)N[C@@H](CCCCN)C(=O)N[C@@H](CCCCN)C(=O)N[C@@H](CC(C)C)C(=O)N[C@@H](CCC(N)=O)C(=O)N[C@@H](CC(=O)O)C(=O)N[C@H](C(N)=O)C(C)C)C(C)C
# notes: also called Cha^20 analog
# B2: [Ala^1,Arg^19]hPTH(1-31)NH2 Trp^23→Cha (peptide)
# peptide: AVSEIQLMHNLGKHLNSMRRVE[Cha]LRKKLQDV-NH2
# modifications: N-terminus assumed
# SMILES: CC[C@H](C)[C@H](NC(=O)[C@H](CCC(=O)O)NC(=O)[C@H](CO)NC(=O)[C@@H](NC(=O)[C@H](C)N)C(C)C)C(=O)N[C@@H](CCC(N)=O)C(=O)N[C@@H](CC(C)C)C(=O)N[C@@H](CCSC)C(=O)N[C@@H](Cc1c[nH]cn1)C(=O)N[C@@H](CC(N)=O)C(=O)N[C@@H](CC(C)C)C(=O)NCC(=O)N[C@@H](CCCCN)C(=O)N[C@@H](Cc1c[nH]cn1)C(=O)N[C@@H](CC(C)C)C(=O)N[C@@H](CC(N)=O)C(=O)N[C@@H](CO)C(=O)N[C@@H](CCSC)C(=O)N[C@@H](CCCNC(=N)N)C(=O)N[C@@H](CCCNC(=N)N)C(=O)N[C@H](C(=O)N[C@@H](CCC(=O)O)C(=O)N[C@@H](CC1CCCCC1)C(=O)N[C@@H](CC(C)C)C(=O)N[C@@H](CCCNC(=N)N)C(=O)N[C@@H](CCCCN)C(=O)N[C@@H](CCCCN)C(=O)N[C@@H](CC(C)C)C(=O)N[C@@H](CCC(N)=O)C(=O)N[C@@H](CC(=O)O)C(=O)N[C@H](C(N)=O)C(C)C)C(C)C
# B3: [Ala^1,Arg^19]hPTH(1-31)NH2 Leu^24→Cha (peptide)
# peptide: AVSEIQLMHNLGKHLNSMRRVEW[Cha]RKKLQDV-NH2
# modifications: N-terminus assumed
# SMILES: CC[C@H](C)[C@H](NC(=O)[C@H](CCC(=O)O)NC(=O)[C@H](CO)NC(=O)[C@@H](NC(=O)[C@H](C)N)C(C)C)C(=O)N[C@@H](CCC(N)=O)C(=O)N[C@@H](CC(C)C)C(=O)N[C@@H](CCSC)C(=O)N[C@@H](Cc1c[nH]cn1)C(=O)N[C@@H](CC(N)=O)C(=O)N[C@@H](CC(C)C)C(=O)NCC(=O)N[C@@H](CCCCN)C(=O)N[C@@H](Cc1c[nH]cn1)C(=O)N[C@@H](CC(C)C)C(=O)N[C@@H](CC(N)=O)C(=O)N[C@@H](CO)C(=O)N[C@@H](CCSC)C(=O)N[C@@H](CCCNC(=N)N)C(=O)N[C@@H](CCCNC(=N)N)C(=O)N[C@H](C(=O)N[C@@H](CCC(=O)O)C(=O)N[C@@H](Cc1c[nH]c2ccccc12)C(=O)N[C@@H](CC1CCCCC1)C(=O)N[C@@H](CCCNC(=N)N)C(=O)N[C@@H](CCCCN)C(=O)N[C@@H](CCCCN)C(=O)N[C@@H](CC(C)C)C(=O)N[C@@H](CCC(N)=O)C(=O)N[C@@H](CC(=O)O)C(=O)N[C@H](C(N)=O)C(C)C)C(C)C
# B4: PTH(1-31)NH2 Arg^20→Orn (peptide)
# peptide: SVSEIQLMHNLGKHLNSME[Orn]VEWLRKKLQDV-NH2
# modifications: N-terminus assumed
# SMILES: CC[C@H](C)[C@H](NC(=O)[C@H](CCC(=O)O)NC(=O)[C@H](CO)NC(=O)[C@@H](NC(=O)[C@@H](N)CO)C(C)C)C(=O)N[C@@H](CCC(N)=O)C(=O)N[C@@H](CC(C)C)C(=O)N[C@@H](CCSC)C(=O)N[C@@H](Cc1c[nH]cn1)C(=O)N[C@@H](CC(N)=O)C(=O)N[C@@H](CC(C)C)C(=O)NCC(=O)N[C@@H](CCCCN)C(=O)N[C@@H](Cc1c[nH]cn1)C(=O)N[C@@H](CC(C)C)C(=O)N[C@@H](CC(N)=O)C(=O)N[C@@H](CO)C(=O)N[C@@H](CCSC)C(=O)N[C@@H](CCC(=O)O)C(=O)N[C@@H](CCCN)C(=O)N[C@H](C(=O)N[C@@H](CCC(=O)O)C(=O)N[C@@H](Cc1c[nH]c2ccccc12)C(=O)N[C@@H](CC(C)C)C(=O)N[C@@H](CCCNC(=N)N)C(=O)N[C@@H](CCCCN)C(=O)N[C@@H](CCCCN)C(=O)N[C@@H](CC(C)C)C(=O)N[C@@H](CCC(N)=O)C(=O)N[C@@H](CC(=O)O)C(=O)N[C@H](C(N)=O)C(C)C)C(C)C
# Target: T1, rat PTHR endogenously expressed in ROS …
# Assay: cell-based or functional assay
row,Binder,"cAMP EC50, ROS 17/2.8 cells [nM]"
1,B1,7.5
2,"AVSEIQLMHNLGKHLNSMRRVEWERKKLQDV-NH2 [[Ala^1,Arg^19]hPTH(1-31)NH2 Leu^24→Glu]",250
3,B2,0.82
4,B3,0.83

# Target: T2, wild-type human PTHR
# Assay: competition binding, HKRK-B7 cells, 125I-PTH(1-34) tracer
Binder,"fold reduction in binding affinity vs [Ala^1,Arg^19]PTH(1-31)NH2 [fold]","fold reduction in binding vs [Ala^1,Arg^19]PTH(1-31)NH2 [fold]"
B1,120,–
"AVSEIQLMHNLGKHLNSMRRVEWERKKLQDV-NH2 [[Ala^1,Arg^19]hPTH(1-31)NH2 Leu^24→Glu]",≥ 150,–
B2,14,~12
B3,11,~12

# Target: T1, rat PTHR endogenously expressed in ROS …
# Assay: competition binding, ROS 17/2.8 cells, 125I-PTH(1-34) tracer
# Protocol: Receptor binding—Binding to the wild-type human PTHR in intact HKRK-B7 cells and ROS 17/2.8 cells was assessed using ¹²⁵I-PTH(1-34) as a tracer radioligand, as described (Shimizu, M., (2001) Endocrinology 142:3068-3074). In brief, the cells in 24-well plates (about 500,000 cells per well) were incubated in binding buffer containing radioligand (about 100,000 cpm per well) with or without unlabeled peptide ligand (3×10⁻⁹ to 1×10⁻⁵ M) for four hours at 15° C. The binding mixture was then removed by aspiration, the cells were rinsed three times with binding buffer, lysed in 1 M NaOH, and the entire lysate was counted for gamma-irradiation in a gamma counter. Binding to PTHR-delNt in COS-7 cell membranes was assessed in 96-well, vacuum filtration plates (Multiscreen-Durapore HV, […], Millipore Corp., Millford, Mass.) using ¹²⁵I-[Aib^{1,3},M]PTH(1-15)NH₂ as a tracer radioligand, as described (Dean, T., (2006) Mol Endocrinol 20:931-942). In brief, cell membranes (20 μg/well) were incubated in membrane binding buffer containing radioligand (30,000 cpm/well) with or without unlabeled peptide ligand (3×10⁻⁹ to 1×10⁻⁵ M) for 90 minutes at 21° C. The plates were then subject to rapid vacuum filtration, the filters were washed once with buffer, detached from the plate and counted for gamma-irradiation in a gamma counter. Non-specific binding was defined as the binding observed in the presence of 1×10⁻⁶ M PTH(1-31)NH₂ for HKRK-B7 and ROS 17/2.8 cells, and 1×10⁻⁶ M [Aib^{1,3},M]PTH(1-15)NH₂ for PTHR-delNt. Specifically bound radioactivity was calculated as a percentage of the radioactivity specifically bound in the absence of competing ligand.
# Effects on cAMP and IP signaling—Selected analogs of [Ala¹,Arg¹⁹]hPTH(1-31)NH₂ with substitutions that markedly impaired binding to HKRK-B7 cells were assessed for their capacity to bind to the PTHR in ROS 17/2.8 cells and to stimulate cAMP-signaling responses in these cells. These bone-derived cells endogenously express the rat PTHR at a more physiological level than is found in HKRK-B7 cells (approximately 80,000 PTHRs per cell vs. 950,000 PTHRs per cell) and, have generally been found (data not shown) to yield closer correlations between PTH analog binding affinity and cAMP-signaling potency than do HKRK-B7 cells, presumably due to their lower PTHR expression level.
row,Binder,IC50 [nM]
1,B1,290
2,"AVSEIQLMHNLGKHLNSMRRVEWERKKLQDV-NH2 [[Ala^1,Arg^19]hPTH(1-31)NH2 Leu^24→Glu]",29000
3,B2,19
4,B3,7.3

# Target: T2, wild-type human PTHR
# Assay: competition binding, HKRK-B7 cells, 125I-PTH(1-34) tracer
# Remark: another data set of the same source
row,Binder,IC50 [nM]
1,B4,> 10000
2,SVSEIQLMHNLGKHLNSME[Apa]VEWLRKKLQDV-NH2 [PTH(1-31)NH2 Arg^20→Apa],> 10000

# Target: T2, wild-type human PTHR
# Assay: as above
# Remark: another data set of the same source
# Outline: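 Intact HKRK-B7 cells stably expressing hPTHR incubated 4 h at 15° C with ¹²⁵I-PTH(1-34) tracer and unlabeled peptide (3×10⁻⁹ to 1×10⁻⁵ M). Nonspecific binding defined with 1×10⁻⁶ M PTH(1-31)NH₂. Bound activity counted after lysis and expressed as % specific binding without competitor; values in nM, mean ± s.e.m.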
row,Binder,IC50 [nM]
1,B1,4740
2,"AVSEIQLMHNLGKHLNSMRRVEWERKKLQDV-NH2 [[Ala^1,Arg^19]hPTH(1-31)NH2 Leu^24→Glu]",> 10000
3,B2,546
4,B3,436

# Target: PTHR-delNt (human) (UniProt Q03431)
# Assay: competition binding, COS-7 membranes, 125I-[Aib1,3,M]PTH(1-15) tracer
Binder,IC50 [nM],fold difference of IC50 from PTH(1-31)NH2 [fold],"fold change in binding affinity vs [Ala^1,Arg^19]PTH(1-31)NH2 [fold]","fold reduction in binding affinity vs [Ala^1,Arg^19]PTH(1-31)NH2 [fold]"
B4,5530,< 4,–,–
B1,632,–,< 3,–
"AVSEIQLMHNLGKHLNSMRRVEWERKKLQDV-NH2 [[Ala^1,Arg^19]hPTH(1-31)NH2 Leu^24→Glu]",1040,–,–,< 3
B2,867,–,< 3,–
B3,283,–,< 3,–
SVSEIQLMHNLGKHLNSME[Apa]VEWLRKKLQDV-NH2 [PTH(1-31)NH2 Arg^20→Apa],5740,< 4,–,–
